Experimental data taken from patent US20190016828A1 (Hoffmann-La Roche, published 2019).

What was measured:
[1] = target: T1, human neonatal Fc-receptor (FcRn) (human, UniProt P55899 24-297; P61769 21-119); test: FcRn affinity chromatography, anti-IGF-1R KiH antibody
T1 construct: also called human FcRn; huFcRn

[2] = target: T1, human neonatal Fc-receptor (FcRn); test: SPR (BIAcore), FcRn immobilized on a CM5 chip, pH 6.0, 200 nM sample
Protocol: The binding properties of wild-type antibody and the mutants to FcRn were analyzed by surface plasmon resonance (SPR) technology using a BIAcore T100 instrument (BIAcore AB, Uppsala, Sweden). […] In the current assay, the FcRn receptor was immobilized onto a BIAcore CM5-biosensor chip (GE Healthcare Bioscience, Uppsala, Sweden) via amine coupling to a level of 400 Response units (RU). The assay was carried out at room temperature with PBS, 0.05% Tween20 pH 6.0 (GE Healthcare Bioscience) as running and dilution buffer. 200 nM of samples were injected at a flow rate of 50 μL/min at room temperature. Association time was 180 sec., dissociation phase took 360 sec. Regeneration of the chip surface was reached by a short injection of HBS-P, pH 8.0. Evaluation of SPR-data was performed by comparison of the biological response signal height at 180 sec. after injection and at 300 sec. after injection. The corresponding parameters are the RU max level (180 sec. after injection) and late stability (300 sec. after end of injection).

T1 sequence (P55899 24-297 limits assumed, chain 1 of 2): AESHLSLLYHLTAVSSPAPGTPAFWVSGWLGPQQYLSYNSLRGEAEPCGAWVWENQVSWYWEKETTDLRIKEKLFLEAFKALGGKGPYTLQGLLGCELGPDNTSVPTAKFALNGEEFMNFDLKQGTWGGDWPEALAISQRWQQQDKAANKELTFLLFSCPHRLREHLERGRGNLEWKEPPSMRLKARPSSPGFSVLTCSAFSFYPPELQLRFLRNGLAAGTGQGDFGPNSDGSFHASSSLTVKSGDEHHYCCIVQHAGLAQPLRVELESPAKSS
T1 sequence (P61769 21-119 limits assumed, chain 2 of 2): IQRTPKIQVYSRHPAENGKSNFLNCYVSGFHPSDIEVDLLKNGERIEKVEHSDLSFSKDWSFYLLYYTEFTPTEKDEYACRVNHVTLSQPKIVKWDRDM

Binder	retention time on FcRn affinity column [1]	binding result [2]
IGF-1R 0034 (antibody, human IgG1, kappa, tied by description; also called <IgF-1R> IgG1 knob wt, hole I253A, H310A, H435A; anti-IGF-1R antibody, one chain with I253A/H310A/H435A) light: not shown heavy 1: not shown heavy 2: QVELVESGGGVVQPGRSQRLSCAASGFTFSSYGMHWVRQAPGKGLEWVAIIWFDGSSTYYADSVRGRFTISRDNSKNTLYLQMNSLRAEDTAVYFCARELGRRYFDLWGRGTLVSVSSASTKGPSVFPLAPSSKSTSGGTAALGCLVKDYFPEPVTVSWNSGALTSGVHTFPAVLQSSGLYSLSSVVTVPSSSLGTQTYICNVNHKPSNTKVDKKVEPKSCDKTHTCPPCPAPELLGGPSVFLFPPKPKDTLMASRTPEVTCVVVDVSHEDPEVKFNWYVDGVEVHNAKTKPREEQYNSTYRVVSVLTVLAQDWLNGKEYKCKVSNKALPAPIEKTISKAKGQPREPQVCTLPPSRDELTKNQVSLSCAVKGFYPSDIAVEWESNGQPENNYKTTPPVLDSDGSFFLVSKLTVDKSRWQQGNVFSCSVMHEALHNAYTQKSLSLSPGK	42 min	–
IGF-1R 0035 (antibody, human IgG1, kappa, also called <IGF-1R> IgG1 knob wt, hole H310A, H433A, Y436A; IGF-1R 0035 (with HHY-AAA mutation in one Fc-region polypeptide)) light: not shown heavy 1: not shown heavy 2: QVELVESGGGVVQPGRSQRLSCAASGFTFSSYGMHWVRQAPGKGLEWVAIIWFDGSSTYYADSVRGRFTISRDNSKNTLYLQMNSLRAEDTAVYFCARELGRRYFDLWGRGTLVSVSSASTKGPSVFPLAPSSKSTSGGTAALGCLVKDYFPEPVTVSWNSGALTSGVHTFPAVLQSSGLYSLSSVVTVPSSSLGTQTYICNVNHKPSNTKVDKKVEPKSCDKTHTCPPCPAPELLGGPSVFLFPPKPKDTLMISRTPEVTCVVVDVSHEDPEVKFNWYVDGVEVHNAKTKPREEQYNSTYRVVSVLTVLAQDWLNGKEYKCKVSNKALPAPIEKTISKAKGQPREPQVCTLPPSRDELTKNQVSLSCAVKGFYPSDIAVEWESNGQPENNYKTTPPVLDSDGSFFLVSKLTVDKSRWQQGNVFSCSVMHEALANHATQKSLSLSPGK	42.4 min	–
IGF-1R 0037 (antibody, human IgG1, kappa, tied by description; also called <IGF-1R> IgG1 knob wt, hole L251D, L314D, L432D; anti-IGF-1R antibody, one chain with L251D/L314D/L432D) light: not shown heavy 1: not shown heavy 2: QVELVESGGGVVQPGRSQRLSCAASGFTFSSYGMHWVRQAPGKGLEWVAIIWFDGSSTYYADSVRGRFTISRDNSKNTLYLQMNSLRAEDTAVYFCARELGRRYFDLWGRGTLVSVSSASTKGPSVFPLAPSSKSTSGGTAALGCLVKDYFPEPVTVSWNSGALTSGVHTFPAVLQSSGLYSLSSVVTVPSSSLGTQTYICNVNHKPSNTKVDKKVEPKSCDKTHTCPPCPAPELLGGPSVFLFPPKPKDTDMISRTPEVTCVVVDVSHEDPEVKFNWYVDGVEVHNAKTKPREEQYNSTYRVVSVLTVLHQDWDNGKEYKCKVSNKALPAPIEKTISKAKGQPREPQVCTLPPSRDELTKNQVSLSCAVKGFYPSDIAVEWESNGQPENNYKTTPPVLDSDGSFFLVSKLTVDKSRWQQGNVFSCSVMHEADHNHYTQKSLSLSPGK	40.9 min	–
IGF-1R 0036 (antibody, human IgG1, kappa, tied by description; also called <IGF-1R> IgG1 knob wt, hole M252Y, S254T, T256E; anti-IGF-1R antibody, one chain with M252Y/S254T/T256E) light: not shown heavy 1: not shown heavy 2: QVELVESGGGVVQPGRSQRLSCAASGFTFSSYGMHWVRQAPGKGLEWVAIIWFDGSSTYYADSVRGRFTISRDNSKNTLYLQMNSLRAEDTAVYFCARELGRRYFDLWGRGTLVSVSSASTKGPSVFPLAPSSKSTSGGTAALGCLVKDYFPEPVTVSWNSGALTSGVHTFPAVLQSSGLYSLSSVVTVPSSSLGTQTYICNVNHKPSNTKVDKKVEPKSCDKTHTCPPCPAPELLGGPSVFLFPPKPKDTLYITREPEVTCVVVDVSHEDPEVKFNWYVDGVEVHNAKTKPREEQYNSTYRVVSVLTVLHQDWLNGKEYKCKVSNKALPAPIEKTISKAKGQPREPQVCTLPPSRDELTKNQVSLSCAVKGFYPSDIAVEWESNGQPENNYKTTPPVLDSDGSFFLVSKLTVDKSRWQQGNVFSCSVMHEALHNHYTQKSLSLSPGK	57.6 min	–
YTE-mutant of anti-IGF-1R antibody (antibody, human IgG1, kappa, IgG1; also called <IGF-1R> IgG1 with M252Y, S254T, T256E; anti-IGF-1R IgG1 with YTE mutation) light: not shown heavy: QVELVESGGGVVQPGRSQRLSCAASGFTFSSYGMHWVRQAPGKGLEWVAIIWFDGSSTYYADSVRGRFTISRDNSKNTLYLQMNSLRAEDTAVYFCARELGRRYFDLWGRGTLVSVSSASTKGPSVFPLAPSSKSTSGGTAALGCLVKDYFPEPVTVSWNSGALTSGVHTFPAVLQSSGLYSLSSVVTVPSSSLGTQTYICNVNHKPSNTKVDKKVEPKSCDKTHTCPPCPAPELLGGPSVFLFPPKPKDTLYITREPEVTCVVVDVSHEDPEVKFNWYVDGVEVHNAKTKPREEQYNSTYRVVSVLTVLHQDWLNGKEYKCKVSNKALPAPIEKTISKAKGQPREPQVYTLPPSRDELTKNQVSLTCLVKGFYPSDIAVEWESNGQPENNYKTTPPVLDSDGSFFLYSKLTVDKSRWQQGNVFSCSVMHEALHNHYTQKSLSLSPG	–	binds
